Measured values as given in US20240270821A1, “GIP/GLP1/GCG TRI-RECEPTOR AGONISTS AND USES THEREOF” (priority 2023, published 2024).

T1: human GIP receptor (human) (UniProt P48546)
T1 sequence (looked up): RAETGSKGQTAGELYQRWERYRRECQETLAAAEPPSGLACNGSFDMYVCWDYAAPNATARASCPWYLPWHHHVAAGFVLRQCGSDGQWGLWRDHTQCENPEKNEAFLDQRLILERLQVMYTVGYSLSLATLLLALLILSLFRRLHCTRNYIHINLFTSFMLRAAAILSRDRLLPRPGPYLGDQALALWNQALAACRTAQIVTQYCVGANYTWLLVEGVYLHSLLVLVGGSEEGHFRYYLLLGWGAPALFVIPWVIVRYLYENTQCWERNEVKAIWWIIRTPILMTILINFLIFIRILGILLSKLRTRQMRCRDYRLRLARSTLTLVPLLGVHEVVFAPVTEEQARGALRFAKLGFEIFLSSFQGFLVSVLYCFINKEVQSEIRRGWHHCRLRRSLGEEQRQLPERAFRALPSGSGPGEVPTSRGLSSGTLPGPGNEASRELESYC


Key:
Assay in all cases: cell-based or functional assay
[1] = target: hGLP-1R (Homo sapiens, UniProt P43220)
[2] = target: T1, human GIP receptor (human)
[3] = target: human glucagon receptor (human) (UniProt P47871)
Sequence of human glucagon receptor (human) (P47871 26-477): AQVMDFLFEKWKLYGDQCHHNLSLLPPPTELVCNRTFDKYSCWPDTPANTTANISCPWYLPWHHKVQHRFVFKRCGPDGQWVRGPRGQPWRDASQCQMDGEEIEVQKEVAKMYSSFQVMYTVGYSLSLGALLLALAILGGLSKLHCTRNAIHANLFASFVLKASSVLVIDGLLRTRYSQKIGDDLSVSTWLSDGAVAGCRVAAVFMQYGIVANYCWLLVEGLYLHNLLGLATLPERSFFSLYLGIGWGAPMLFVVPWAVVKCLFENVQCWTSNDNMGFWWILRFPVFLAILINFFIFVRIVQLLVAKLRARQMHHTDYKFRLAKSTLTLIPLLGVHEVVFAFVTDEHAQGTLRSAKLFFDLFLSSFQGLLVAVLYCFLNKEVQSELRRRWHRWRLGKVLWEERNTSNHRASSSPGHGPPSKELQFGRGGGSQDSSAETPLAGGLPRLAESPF

Sequence of hGLP-1R (P43220 24-463): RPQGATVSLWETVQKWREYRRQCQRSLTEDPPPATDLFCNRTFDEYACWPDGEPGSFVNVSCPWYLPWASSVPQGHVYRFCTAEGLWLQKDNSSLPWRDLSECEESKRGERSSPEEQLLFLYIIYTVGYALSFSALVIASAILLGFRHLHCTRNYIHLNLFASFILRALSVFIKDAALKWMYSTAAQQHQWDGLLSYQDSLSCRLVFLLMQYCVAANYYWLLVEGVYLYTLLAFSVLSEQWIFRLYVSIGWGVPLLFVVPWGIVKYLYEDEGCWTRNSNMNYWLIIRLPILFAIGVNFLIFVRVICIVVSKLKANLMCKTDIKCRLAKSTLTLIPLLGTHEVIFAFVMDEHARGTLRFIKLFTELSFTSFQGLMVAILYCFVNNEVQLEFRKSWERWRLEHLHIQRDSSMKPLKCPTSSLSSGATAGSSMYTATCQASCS

Row | Binder | Relative cAMP EC50 [1] [nM] | cAMP Rel EC50 (in the presence of 1% HSA) [1] [nM] | Relative cAMP EC50 [2] [nM] | cAMP Rel EC50 (in the presence of 1% HSA) [2] [nM] | Relative cAMP EC50 [3] [nM] | cAMP Rel EC50 (in the presence of 1% HSA) [3] [nM]
1 | YXQGTXTSDXXILLDXKAQXXFIEYLIEGGPSSGEPPPEGGEE (non-natural residues, acylated Lys ((γGlu)2-C18 diacid), C-terminal amide; synthetic construct; SITE 2: note = 2-Aminoisobutyric Acid; SITE 6: note = alpha-methyl-2-fluoro-L-phenylalanine; SITE 10: note = 3-(4-Pyridyl)-L-alanine; SITE 11: note = alpha-methyl-L-serine; SITE 16: note = L-ornithine; SITE 17: note = Lysine is chemically modified through conjugation of the epsi) [Example 605] | 0.795 | 56.2 | 0.132 | 6.69 | 5.49 | 353
2 | YXQGTXTSDXXILLDXKAQXXFIEYLIEGGPSSGEPPPEGEEE (non-natural residues; C18 diacid-(γGlu)2 on Lys; C-terminal amide; synthetic construct; SITE 2: note = 2-Aminoisobutyric Acid; SITE 6: note = alpha-methyl-2-fluoro-L-phenylalanine; SITE 10: note = 3-(4-Pyridyl)-L-alanine; SITE 11: note = alpha-methyl-L-serine; SITE 16: note = L-ornithine; SITE 17: note = Lysine is chemically modified through conjugation of the epsi) [Example 606] | 0.786 | 53.1 | 0.17 | 5.69 | 5.01 | 474
3 | YXQGTXTSDXSIXLDXKAQXEFIEXLLEGGPSSGAPPPSGE (non-natural residues, C-terminal amide, acylated Lys with fatty diacid; synthetic construct; SITE 2: note = 2-Aminoisobutyric Acid; SITE 6: note = alpha-methyl-2-fluoro-L-phenylalanine; SITE 10: note = 3-(4-Pyridyl)-L-alanine; SITE 13: note = alpha-methyl-leucine; SITE 16: note = L-ornithine; SITE 17: note = Lysine is chemically modified through conjugation of the epsil) [Example 613] | 0.698 | 81.6 | 0.00925 | 0.791 | 20.4 | 1410
4 | YXQGTXTSDXSIXLDXKAQXEFIEXLIEGGPSSGAPPPSGE (Aib, alpha-methyl residues, 4Pal, Orn, D-Glu, lipidated Lys, amide; synthetic construct; SITE 2: note = 2-Aminoisobutyric Acid; SITE 6: note = alpha-methyl-2-fluoro-L-phenylalanine; SITE 10: note = 3-(4-Pyridyl)-L-alanine; SITE 13: note = alpha-methyl-leucine; SITE 16: note = L-ornithine; SITE 17: note = Lysine is chemically modified through conjugation of the epsil) [Example 616] | 0.29 | 28.9 | 0.00727 | 0.467 | 6.58 | 734
5 | YXQGTXTSDXSIXLDXKAQXEFIEXLIEGGPSSGAPPPSGE (non-natural residues; acylated Lys; C-terminal amide; synthetic construct; SITE 2: note = 2-Aminoisobutyric Acid; SITE 6: note = alpha-methyl-2-fluoro-L-phenylalanine; SITE 10: note = 3-(4-Pyridyl)-L-alanine; SITE 13: note = alpha-methyl-leucine; SITE 16: note = L-ornithine; SITE 17: note = Lysine is chemically modified through conjugation of the epsil) [Example 614] | 0.251 | 33.2 | 0.0065 | 0.597 | 6.36 | 724
6 | YXQGTXTSDXSIXLDXKAQXEFIEXLLEGGPSSGAPPPSGE (Non-natural residues; K acylated AEEA-γGlu-C18 diacid; C-terminal amide; synthetic construct; SITE 2: note = 2-Aminoisobutyric Acid; SITE 6: note = alpha-methyl-2-fluoro-L-phenylalanine; SITE 10: note = 3-(4-Pyridyl)-L-alanine; SITE 13: note = alpha-methyl-leucine; SITE 16: note = L-ornithine; SITE 17: note = Lysine is chemically modified through conjugation of the epsil) [Example 615] | 0.575 | 82.9 | 0.00825 | 0.95 | 3.93 | 697
7 | YXQGTXTSDXSILLDKKAQXAFIEYLEEGGPSSGEPPPSGTGE (Aib, αMeF(2F), 4Pal; acylated K; C-terminal amide; synthetic construct; SITE 2: note = 2-Aminoisobutyric Acid; SITE 6: note = alpha-methyl-2-fluoro-L-phenylalanine; SITE 10: note = 3-(4-Pyridyl)-L-alanine; SITE 17: note = Lysine is chemically modified through conjugation of the epsilon-amino group of the Lysine side chain with (gamma-Glu)2-CO-(CH2)1) [Example 607] | 1.15 | 139 | 0.0879 | 6.63 | 8.91 | 565
8 | YXQGTXTSDXSIXLDKKAQXAFIEYLEEGGPSSGEPPPSGEGE (non-natural residues; lipidated Lys; C-terminal amide; synthetic construct; SITE 2: note = 2-Aminoisobutyric Acid; SITE 6: note = alpha-methyl-2-fluoro-L-phenylalanine; SITE 10: note = 3-(4-Pyridyl)-L-alanine; SITE 13: note = alpha-methyl-leucine; SITE 17: note = Lysine is chemically modified through conjugation of the epsilon-amino group of the Lysine) [Example 625] | 1.16 | 72.1 | 0.0291 | 1.81 | 8.53 | 657
9 | YXQGTXTSDXSILLDKKAQXAFIEYLEEGGPSSGAPPPSGTEE (acylated Lys (γGlu)2-C18 diacid; non-natural residues; C-terminal amide; synthetic construct; SITE 2: note = 2-Aminoisobutyric Acid; SITE 6: note = alpha-methyl-2-fluoro-L-phenylalanine; SITE 10: note = 3-(4-Pyridyl)-L-alanine; SITE 17: note = Lysine is chemically modified through conjugation of the epsilon-amino group of the Lysine side chain with (gamma-Glu)2-CO-(CH2)1) [Example 609] | 1.07 | 121 | 0.0784 | 6.19 | 6.46 | 647
10 | YXQGTXTSDXSIXLDKKAQXAFIEYLEEGGPSSGEPPPSGTGE (non-natural residues, C18 diacid acylation, C-terminal amide; synthetic construct; SITE 2: note = 2-Aminoisobutyric Acid; SITE 6: note = alpha-methyl-2-fluoro-L-phenylalanine; SITE 10: note = 3-(4-Pyridyl)-L-alanine; SITE 13: note = alpha-methyl-leucine; SITE 17: note = Lysine is chemically modified through conjugation of the epsilon-amino group of the Lysine) [Example 624] | 0.95 | 63.4 | 0.0222 | 1.17 | 8.42 | 808
11 | YXQGTXTSDXSILLDKKAQXAFIEYLEEGGPSSGAPPPSGGEE (non-natural residues; acylated Lys C18 diacid; C-term amide; synthetic construct; SITE 2: note = 2-Aminoisobutyric Acid; SITE 6: note = alpha-methyl-2-fluoro-L-phenylalanine; SITE 10: note = 3-(4-Pyridyl)-L-alanine; SITE 17: note = Lysine is chemically modified through conjugation of the epsilon-amino group of the Lysine side chain with (gamma-Glu)2-CO-(CH2)1) [Example 612] | 1.21 | 126 | 0.087 | 7.58 | 7.13 | 640
12 | YXQGTXTSDXSILLDKKAQXAFIEYLEEGGPSSGAPPPSGSGE (non-natural residues; lysine acylated with (γ-Glu)2-C18 diacid; C-terminal amide; synthetic construct; SITE 2: note = 2-Aminoisobutyric Acid; SITE 6: note = alpha-methyl-2-fluoro-L-phenylalanine; SITE 10: note = 3-(4-Pyridyl)-L-alanine; SITE 17: note = Lysine is chemically modified through conjugation of the epsilon-amino group of the Lysine side chain with (gamma-Glu)2-CO-(CH2)1) [Example 618] | 1.53 | 88.9 | 0.0418 | 4.63 | 5.57 | 691
13 | YXQGTXTSDXSILLDKKAQXAFIEYLEEGGPSSGAPPPSGSEE (acylated Lys (γGlu)2-C18 diacid; non-natural residues; C-terminal amide; synthetic construct; SITE 2: note = 2-Aminoisobutyric Acid; SITE 6: note = alpha-methyl-2-fluoro-L-phenylalanine; SITE 10: note = 3-(4-Pyridyl)-L-alanine; SITE 17: note = Lysine is chemically modified through conjugation of the epsilon-amino group of the Lysine side chain with (gamma-Glu)2-CO-(CH2)1) [Example 610] | 1.66 | 130 | 0.133 | 7.02 | 5.75 | 536
14 | YXQGTXTSDXSIXLDKKAQXAFIEYLEEGGPSSGAPPPSGEGE (Lys acylated with (γGlu)2-C18 diacid; non-natural residues; C-amide; synthetic construct; SITE 2: note = 2-Aminoisobutyric Acid; SITE 6: note = alpha-methyl-2-fluoro-L-phenylalanine; SITE 10: note = 3-(4-Pyridyl)-L-alanine; SITE 13: note = alpha-methyl-leucine; SITE 17: note = Lysine is chemically modified through conjugation of the epsilon-amino group of the Lysine) [Example 623] | 0.907 | 62.2 | 0.0224 | 1.48 | 7.94 | 832
15 | YXQGTXTSDXSILLDKKAQXAFIEYLEEGGPSSGEPPPSGTEE (acylated Lys, C-terminal amide, non-natural residues; synthetic construct; SITE 2: note = 2-Aminoisobutyric Acid; SITE 6: note = alpha-methyl-2-fluoro-L-phenylalanine; SITE 10: note = 3-(4-Pyridyl)-L-alanine; SITE 17: note = Lysine is chemically modified through conjugation of the epsilon-amino group of the Lysine side chain with (gamma-Glu)2-CO-(CH2)1) [Example 608] | 1.87 | 201 | 0.124 | 8.51 | 7.82 | 669
16 | YXQGTXTSDXSILLDKKAQXAFIEYLEEGGPSSGAPPPSGEEE (non-natural residues (Aib, αMeF(2F), 4Pal); lipidated Lys; C-amide; synthetic construct; SITE 2: note = 2-Aminoisobutyric Acid; SITE 6: note = alpha-methyl-2-fluoro-L-phenylalanine; SITE 10: note = 3-(4-Pyridyl)-L-alanine; SITE 17: note = Lysine is chemically modified through conjugation of the epsilon-amino group of the Lysine side chain with (gamma-Glu)2-CO-(CH2)1) [Example 611] | 1.63 | 146 | 0.126 | 7.35 | 6.8 | 627
17 | YXQGTXTSDXSIXLDKKAQXAFIEYLEEGGPSSGAPPPSGTGE (Aib, αMeF(2F), 4Pal, αMeL; acylated lysine; amide; synthetic construct; SITE 2: note = 2-Aminoisobutyric Acid; SITE 6: note = alpha-methyl-2-fluoro-L-phenylalanine; SITE 10: note = 3-(4-Pyridyl)-L-alanine; SITE 13: note = alpha-methyl-leucine; SITE 17: note = Lysine is chemically modified through conjugation of the epsilon-amino group of the Lysine) [Example 622] | 0.776 | 52.3 | 0.0148 | 1.19 | 7.7 | 641
18 | YXQGTXTSDXSILLDKKAQXAFIEYLEEGGPSSGAPPPSGEGE (non-natural residues; Lys acylated (γGlu)2-C18 diacid; C-terminal amide; synthetic construct; SITE 2: note = 2-Aminoisobutyric Acid; SITE 6: note = alpha-methyl-2-fluoro-L-phenylalanine; SITE 10: note = 3-(4-Pyridyl)-L-alanine; SITE 17: note = Lysine is chemically modified through conjugation of the epsilon-amino group of the Lysine side chain with (gamma-Glu)2-CO-(CH2)1) [Example 621] | 1.28 | 111 | 0.0661 | 7.31 | 6.81 | 901
19 | YXQGTXTSDXSILLDKKAQXAFIEYLEEGGPSSGAPPPSGAGE (non-natural residues, acylated Lys, C-terminal amide; synthetic construct; SITE 2: note = 2-Aminoisobutyric Acid; SITE 6: note = alpha-methyl-2-fluoro-L-phenylalanine; SITE 10: note = 3-(4-Pyridyl)-L-alanine; SITE 17: note = Lysine is chemically modified through conjugation of the epsilon-amino group of the Lysine side chain with (gamma-Glu)2-CO-(CH2)1) [Example 620] | 0.981 | 90.7 | 0.0706 | 5.96 | 8.26 | 665
20 | YXQGTXTSDXSILLDKKAQXAFIEYLEEGGPSSGAPPPSGGGE (non-natural residues; lipidated Lys; C-terminal amide; synthetic construct; SITE 2: note = 2-Aminoisobutyric Acid; SITE 6: note = alpha-methyl-2-fluoro-L-phenylalanine; SITE 10: note = 3-(4-Pyridyl)-L-alanine; SITE 17: note = Lysine is chemically modified through conjugation of the epsilon-amino group of the Lysine side chain with (gamma-Glu)2-CO-(CH2)1) [Example 619] | 0.992 | 94 | 0.0685 | 6.78 | 6.34 | 819
